Test results as given in US8263133B2, “Multivalent clustering targeting strategy for drug carriers” (The Regents of the University of California, priority 2009, dated 2012).
Where no end group is shown, it is not given here.

Columns and labels:
αvβ3 integrins = molecular target: T1, αvβ3 integrins (Homo sapiens, UniProt P05106+P06756); experiment: Anti-adhesion assay on vitronectin-coated wells; type: cell-based; settings: HeLa cells
T1 construct: host or cells: HeLa cells, harvested by scraping
T1 sequence (P06756 31-889 limits assumed): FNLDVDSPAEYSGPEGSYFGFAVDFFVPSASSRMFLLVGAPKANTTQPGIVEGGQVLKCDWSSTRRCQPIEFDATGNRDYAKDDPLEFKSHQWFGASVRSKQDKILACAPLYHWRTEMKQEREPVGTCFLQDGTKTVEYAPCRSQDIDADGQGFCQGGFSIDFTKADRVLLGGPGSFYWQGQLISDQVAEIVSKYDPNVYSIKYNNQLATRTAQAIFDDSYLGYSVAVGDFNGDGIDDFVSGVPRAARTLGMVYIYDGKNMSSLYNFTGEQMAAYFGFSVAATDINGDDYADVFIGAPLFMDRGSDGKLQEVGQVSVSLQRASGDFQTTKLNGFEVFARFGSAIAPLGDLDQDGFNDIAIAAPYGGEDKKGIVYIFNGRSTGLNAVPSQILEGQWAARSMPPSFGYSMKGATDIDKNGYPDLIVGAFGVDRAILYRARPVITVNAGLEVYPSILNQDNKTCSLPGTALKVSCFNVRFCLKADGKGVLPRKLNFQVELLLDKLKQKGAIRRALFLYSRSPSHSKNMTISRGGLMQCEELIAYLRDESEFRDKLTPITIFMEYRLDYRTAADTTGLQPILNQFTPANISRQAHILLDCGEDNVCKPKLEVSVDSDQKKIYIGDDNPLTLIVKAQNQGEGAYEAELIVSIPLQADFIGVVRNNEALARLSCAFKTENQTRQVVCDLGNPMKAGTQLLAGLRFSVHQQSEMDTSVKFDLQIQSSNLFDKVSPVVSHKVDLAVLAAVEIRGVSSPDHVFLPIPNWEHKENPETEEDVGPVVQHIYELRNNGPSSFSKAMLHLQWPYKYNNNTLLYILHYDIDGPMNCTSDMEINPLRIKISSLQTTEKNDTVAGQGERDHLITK
T1 sequence (P06756 891-1048 partner limits assumed): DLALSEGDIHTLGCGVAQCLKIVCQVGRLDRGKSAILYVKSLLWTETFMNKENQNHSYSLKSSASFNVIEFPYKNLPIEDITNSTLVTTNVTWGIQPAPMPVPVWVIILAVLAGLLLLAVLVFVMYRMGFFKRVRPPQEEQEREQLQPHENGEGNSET
T1 sequence (P05106 27-788): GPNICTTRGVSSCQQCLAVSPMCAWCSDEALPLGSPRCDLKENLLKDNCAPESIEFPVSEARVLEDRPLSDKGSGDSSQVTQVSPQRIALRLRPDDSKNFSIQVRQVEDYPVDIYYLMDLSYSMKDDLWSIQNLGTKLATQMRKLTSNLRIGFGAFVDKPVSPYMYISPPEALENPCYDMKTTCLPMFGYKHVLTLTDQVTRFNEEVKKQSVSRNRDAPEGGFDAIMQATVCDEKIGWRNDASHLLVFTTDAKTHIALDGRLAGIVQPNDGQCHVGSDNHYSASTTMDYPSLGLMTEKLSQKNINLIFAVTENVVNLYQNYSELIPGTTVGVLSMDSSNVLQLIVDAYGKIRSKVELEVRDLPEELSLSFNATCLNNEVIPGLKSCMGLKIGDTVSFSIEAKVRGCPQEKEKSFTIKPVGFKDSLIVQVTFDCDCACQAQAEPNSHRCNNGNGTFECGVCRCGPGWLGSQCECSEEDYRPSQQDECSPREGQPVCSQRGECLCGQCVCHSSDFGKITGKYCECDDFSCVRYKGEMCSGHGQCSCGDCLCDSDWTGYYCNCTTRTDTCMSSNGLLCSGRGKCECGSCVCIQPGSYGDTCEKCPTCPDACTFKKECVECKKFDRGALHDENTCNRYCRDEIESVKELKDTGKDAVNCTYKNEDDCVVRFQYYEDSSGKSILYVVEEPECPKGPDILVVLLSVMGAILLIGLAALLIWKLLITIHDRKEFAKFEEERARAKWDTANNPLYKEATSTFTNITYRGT
Procedure: HeLa cells (ATCC, Manassas, Va.) were cultured in DMEM medium (Invitrogen, Carlsbad, Calif.) supplemented with 10% Bovine Growth Serum (BGS, Hyclone, Logan, Utah). The cells were cultured at 37° C., with 98% humidity and 5% CO2. Cells were regularly subcultured using trypsin. 96-well plates were coated with human vitronectin by incubating a vitronectin solution (50 μL of 3 μg/mL, Invitrogen, Carlsbad, Calif.) in the well for 12-hrs at 37° C. The wells were washed three times with PBS and blocked with BSA (50 μL of 2% BSA in PBS) for 30 minutes at 37° C. The wells were washed three times with PBS and 100 μL/well of serum-free DMEM was added before chilling on ice. HeLa cells were harvested by scrapping using cell scrapers (USA Scientific, Ocala, Fla.), pelleted, and resuspended in ice cold serum-free DMEM to 400,000 cells/mL. 200 μL of serum-free DMEM was added to 50 μL of Au-Cap-RGD solution and vortexed before 250 μL of cell solution was added to the cells and placed in ice for 15 minutes. 100 μL/well of cell solution was added and allowed to incubate at 37° C. for 50 minutes. The plate was submerged in PBS in a Ziploc bag and centrifuged upside down for 10 minutes at 250 g. The plate was washed gently with additional PBS and removed. Remaining liquid was removed from the wells. The cells were fixed using 4% paraformaldehyde solution for 15 minutes and washed 3 times with PBS. Crystal violet solution was added to each well and incubated for 1 hr. The wells were then washed with milliQ water until no crystal violet was visible in solution. Crystal violet was solubilized using 10% acetic acid plate for 15 min and the absorbance at 570 nm was taken using the PowerWave microplate reader (BioTek, Winooski, Vt.).

[1] = Salt stability of modified and unmodified nanoparticles by UV-Vis absorbance; type: physicochemical; settings: absorption scan, increasing NaCl
Procedure: FIG. 2. Salt stability of modified and unmodified nanoparticles measured using UV-Vis absorbance spectroscopy. Salt concentration was increased using 2 μL for unmodified nanoparticles and 15 μL of 4.11 M NaCl every 15 min. Wavelength scans of (A) 5 nm unmodified Au nanoparticles and (B) Au-Cap nanoparticles in solution with increasing NaCl concentration. Shaded area under the curves in A and B were used to calculate aggregation parameter. C. Aggregation parameter plotted with mean±SD for n=3 for increasing NaCl concentration for 5 nm unmodified Au and Au-Cap.
Peptide-modified (Au-Cap) and unmodified particles were tested to check their salt stability. Au and Au-Cap nanoparticles were added to semi-micro cuvettes and serial additions of NaCl solution were added every 15 min followed by a wavelength scan from 400-900 nm (Beckman DU 730, Fullerton, Calif.). Aggregation parameter (AP) used to quantify aggregation was calculated using the equation AP=(A−A0)/A0. A is the integral of absorbance from 600 to 700 nm, and A0 is the integral of absorbance from 600 to 700 nm of the initial solution without salt added (see FIG. 2 area under the curve).

HeLa cells = experiment: Cell toxicity (proliferation) assay; type: cell-based; settings: all concentrations tested up to 17.9×10^10 particles/well
Procedure: FIG. 4. Cell toxicity (proliferation) assay for Au-Cap nanoparticles and DNA/PEI-Au polyplexes. HeLa cells were plated in 96-well plates (7000 cells/well) for 12-hrs before exposing the cells to Au-Cap nanoparticles or DNA/PEI-Au-Cap-RGD-ASA polyplexes at varying concentrations of Au nanoparticles (1.7 μL/well) and testing for cell proliferation. The data was normalized to absorbance of untreated samples to calculate the percent viability for each sample (n=3).
To determine whether 5 nm Au-Cap or DNA/PEI polyplexes modified with 5 nm Au-RGD-ASA were toxic to cells, the proliferation rate of HeLa cells exposed to Au-Cap or DNA/PEI-Au-RGD-ASA was compared to that of untreated cells (FIG. 4). Au-Cap nanoparticles were not toxic to cells for all the concentrations tested up to 17.9×10^10 particles/well (equivalent to 80×10^10 particles/m DNA).

Au-Cap-RGD: RGD modified gold nanoparticles formed with mixtures of Cap and Cap-RGD peptides (peptide 1 Ac-CCVVVTGRGDSPSSK-OH; peptide 2 CCVVVT-OH; cysteine pairing not given here; also: mixture of Cap and Cap-RGD peptides on gold nanoparticles)
Equivalent amount of RGD required compared to monovalent free RGD peptide (αvβ3 integrins; n=3): required less | IC50 (αvβ3 integrins; equivalent RGD peptide concentration, read-out: IC50 concentration at which 50% of cell adhesion is inhibited): ~100 nM

Au-Cap: 5 nm gold nanoparticles stabilized with self-assembling peptide CCVVVT (Cap) (CCVVVT-OH; cysteine pairing not given here; also: attached to 5 nm gold nanoparticles)
NaCl concentration up to which nanoparticles are stable [1]: up to 500 mM | Toxicity to cells (HeLa cells): not toxic | Effect on cell attachment (αvβ3 integrins): did not affect cell attachment
